Laboratory results: US5547935A (Chiron Corporation, priority 1994, dated 1996)

How the values were obtained:
[1] = system: Human foreskin fibroblasts; assay: Mitogenicity: 3H-thymidine incorporation; type: cell-based
Description: Mitogenicity was assayed substantially following the method described by D. J. Knauer et al, J Biol Chem (1984) 259:5623-31.
Human foreskin fibroblasts were obtained and frozen at the thirteenth passage. Thawed cells are trypsinized, pelleted, and resuspended in a medium containing DMEM, 5% FBS, 1 mM sodium pyruvate, 300 μg/mL L-glutamine, 100 U/mL penicillin, and 100 μg/mL streptomycin. The cells are counted using a hemocytometer and 0.4% trypan blue. The cell concentration is adjusted to 1×10^-5 cells/mL using the same medium, and dispensed onto microtiter plates (100 μL/well). The plates are incubated for 5 days in a tissue culture incubator.
EGF muteins prepared in Example 1 and native sequence EGF are dissolved to make 100 μg/mL solutions. These solutions are used to make serial dilutions of 20, 10, 5, 2.5, 1.25, 0.625, 0.3125, 0.15625, 0.078125, 0.0390625, 0.0195, and 0.00975 ng/mL. Ten μL of each dilution is added to a microtiter plate well, and the plates returned to the incubator and incubated at 37° C. for 18 hours. […]
The well contents are then solubilized using 0.3 N NaOH (50 μL/well) for 30 minutes, and transferred to scintillation vials. Scintillation fluid (Ready-Solv EP, 4 mL) is then added to each vial, and the vials counted for 1 min with a 0-1,000 (^3 H) window in a Beckman LS3801 counter.

[2] = target: T1, EGF receptor on fixed A431 cells (Homo sapiens, UniProt P00533); assay: Receptor affinity: binding to fixed A431 cells; settings: 1 nM, 2 hr at 37° C.
T1 construct: Confluent A43 1 cells were fixed in 96-well microtiter plates using 0.05% formaldehyde; endogenous in cells; host or cells: A431 cells, formaldehyde-fixed
Description: Confluent A43 1 cells were fixed in 96-well microtiter plates using 0.05% formaldehyde for 10 min at room temperature, then washed 3× with 200 μL PBS with 0.1% bovine serum albumin (BSA).
The wells were then washed 3× with 200 μL of PBS/0.1% BSA, detached, and counted in a gamma counter.

Affinity [2]: 32 percentage of control (EGF)
B1: .phi.EFG: EGF with N-terminal flag extension, additional sequence DWKDDDDK (protein)
chain: DWKDDDDKPQHWSCPEGTLAGNGNSTCVGPAPFLIFSHGNSIFRIDTEGTNYEQLVVDAGVSVIMDFHYNEKRIYWVDLERQLLQRVFLNGSRQERVCNIEKNVSGMAINWINEEVIWSNQQEGIITVTDMKGNNSHILLSALKYPANVAVDPVERFIFWSSEVAGSLYRADLDGVGVKALLETSEKITAVSLDVLDKRLFWIQYNREGSNSLICSCDYDGGSVHISKHPTQHNLFAMSLFGDRIFYSTWKMKTIWIANKHTGKDMVRINLHSSFVPLGELKVVHPLAQPKAEDDTWEPEQKLCKLRKGNCSSTVCGQDLQSHLCMCAEGYALSRDRKYCEDVNECAFWNHGCTLGCKNTPGSYYCTCPVGFVLLPDGKRCHQLVSCPRNVSECSHDCVLTSEGPLCFCPEGSVLERDGKTCSGCSSPDNGGCSQLCVPLSPVSWECDCFPGYDLQLDEKSCAASGPQPFLLFANSQDIRHMHFDGTDYGTLLSQQMGMVYALDHDPVENKIYFAHTALKWIERANMDGSQRERLIEEGVDVPEGLAVDWIGRRFYWTDRGKSLIGRSDLNGKRSKIITKENISQPRGIAVHPMAKRLFWTDTGINPRIESSSLQGLGRLVIASSDLIWPSGITIDFLTDKLYWCDAKQSVIEMANLDGSKRRRLTQNDVGHPFAVAVFEDYVWFSDWAMPSVMRVNKRTGKDRVRLQGSMLKPSSLVVVHPLAKPGADPCLYQNGGCEHICKKRLGTAWCSCREGFMKASDGKTCLALDGHQLLAGGEVDLKNQVTPLDILSKTRVSEDNITESQHMLVAEIMVSDQDDCAPVGCSMYARCISEGEDATCQCLKGFAGDGKLCSDIDECEMGVPVCPPASSKCINTEGGYVCRCSEGYQGDGIHCLDIDECQLGEHSCGENASCTNTEGGYTCMCAGRLSEPGLICPDSTPPPHLREDDHHYSVRNSDSECPLSHDGYCLHDGVCMYIEALDKYACNCVVGYIGERCQYRDLKWWELRHAGHGQQQKVIVVAVCVVVLVMLLLLSLWGAHYYRTQKLLSKNPKNPYEESSRDVRSRRPADTEDGMSSCPQPWFVVIKEHQDLKNGGQPVAGEDGQAADGSMQPTSWRQEPQLCGMGTEQGCWIPVSSDKGSCPQVMERSFHMPSYGTQTLEGGVEKPHSLLSANPLWQQRALDPPHQMELTQ
Mitogenicity [1]: 56 percentage of control (EGF)
